Experimental data from patent US20070258988A1 (SLOAN KETTERING INSTITUTE FOR CANCER RESEARCH, published 2007).

Tests used:
[1] = target: T1, rMOR-1 (no Exon 4) (rat, UniProt P33535 1-386, limits assumed); assay: competition against [3H]DAMGO (~1 nM), membranes of stable CHO transfectants
T1 construct: domain: no Exon 4; also called rMOR-1 no E 4; rMOR-1 (no E4)
Procedure: (§1) ANOVA was performed, followed by Tukey's post hoc analysis. Results are the mean ±S.E. of at least three independent determinations.

[2] = target: T2, rMOR-1C1 (rat); assay: as above
T2 construct: whole, on cells
Procedure: as §1

[3] = target: T3, rMOR-1D (rat); assay: as above
T3 construct: whole, on cells
Procedure: as §1

[4] = target: T4, rMOR-1A (rat); assay: as above
T4 chain: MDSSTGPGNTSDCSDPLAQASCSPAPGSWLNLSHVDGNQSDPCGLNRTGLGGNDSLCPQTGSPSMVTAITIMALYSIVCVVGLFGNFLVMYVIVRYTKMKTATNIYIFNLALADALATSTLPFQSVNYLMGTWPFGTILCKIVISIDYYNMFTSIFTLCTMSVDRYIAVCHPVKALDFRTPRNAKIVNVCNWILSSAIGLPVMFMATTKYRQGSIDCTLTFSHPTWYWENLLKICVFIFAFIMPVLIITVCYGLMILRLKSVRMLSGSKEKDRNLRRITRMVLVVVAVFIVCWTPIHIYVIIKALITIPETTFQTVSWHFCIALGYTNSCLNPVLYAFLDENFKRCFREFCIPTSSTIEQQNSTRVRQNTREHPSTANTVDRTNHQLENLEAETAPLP
Procedure: as §1

[5] = target: T1, rMOR-1 (no Exon 4); assay: cell-based or functional assay
[6] = target: rMOR-1 (rat, UniProt P33535 1-398); assay: cell-based or functional assay
[7] = target: T2, rMOR-1C1; assay: cell-based or functional assay
[8] = target: T3, rMOR-1D; assay: cell-based or functional assay
[9] = target: T4, rMOR-1A; assay: cell-based or functional assay
[10] = target: hMOR-1 (exons 1-3) (human, UniProt P35372 1-388); assay: cell-based or functional assay
[11] = target: hMOR-1B1 (human, UniProt P35372 1-388); assay: cell-based or functional assay
[12] = target: hMOR-1B3 (human, UniProt P35372 1-388); assay: cell-based or functional assay
[13] = target: hMOR-1B5 (human, UniProt P35372 1-388); assay: cell-based or functional assay
[14] = target: hMOR-1 (human, UniProt P35372 1-400); assay: cell-based or functional assay
[15] = target: hMOR-1A (human); assay: cell-based or functional assay
[16] = target: hMOR-1B2 (human, UniProt P35372 1-388); assay: cell-based or functional assay
[17] = target: hMOR-1B4 (human, UniProt P35372 1-388); assay: cell-based or functional assay
[18] = target: hMOR-1Y (human, UniProt P35372 1-388); assay: cell-based or functional assay

B1: β-Endorphin (peptide, UniProt P01189 237-267, looked up)
peptide: YGGFMTSEKSQTPLVTLFKNAIIKNAYKKGE
notes: also called B-Endorphin
Ki [1]: 10 nM
Ki [2]: 8.8 nM
Ki [3]: 8.5 nM
Ki [4]: 10.5 nM
EC50 (nM), stimulation of [35S]GTPγS binding [5]: 90 nM
Max Stim (%) [5]: 240%
EC50 (nM), stimulation of [35S]GTPγS binding [6]: 4 nM
Max Stim (%) [6]: 246%
Max Stim (%) [7]: 361%
EC50 (nM), stimulation of [35S]GTPγS binding [8]: 91 nM
Max Stim (%) [8]: 165%
Max Stim (%) [9]: 177%
Max Inhib (%) [10]: 73%
Max Inhib (%) [11]: 65%
Max Inhib (%) [12]: 73%
Max Inhib (%) [13]: 69%
Max Inhib (%) [14]: 79%
Max Inhib (%) [15]: 73%
Max Inhib (%) [16]: 65%
Max Inhib (%) [17]: 69%
Max Inhib (%) [18]: 90%
